The record followed here is patent US20230382992A1.

pEC50: −log10 of the molar value.

For assay [1], the target named is mouse TIM3 on cells (mouse) (UniProt Q8VIM0). In words: binding to activated mouse T cells (method not described).
Assay [2] shares this target. The assay can be described thus: binding to activated mouse T cells, compared with TIM3.18 on human TIM-3.

Chain of mouse TIM3 on cells (mouse) (Q8VIM0 20-281): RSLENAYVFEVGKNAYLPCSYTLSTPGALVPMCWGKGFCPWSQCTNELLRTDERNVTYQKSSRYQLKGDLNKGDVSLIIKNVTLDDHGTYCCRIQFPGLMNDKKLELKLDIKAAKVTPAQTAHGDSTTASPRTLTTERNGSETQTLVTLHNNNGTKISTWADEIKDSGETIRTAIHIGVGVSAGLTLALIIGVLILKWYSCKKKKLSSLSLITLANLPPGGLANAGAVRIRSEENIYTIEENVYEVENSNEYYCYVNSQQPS

As to “RMT3-23 rat anti-mouse TIM-3 antibody (Bio-X-Cell)”, in assay [1], the pEC50 (as a rule, the EC50 on a negative log10 scale, so that one unit is a factor of ten) is 8.77. In addition, the fold weaker EC50 than TIM3.18 on human TIM-3 in assay [2] stood at 17 fold.
